# “And” between values parts separate entries of the source, which are not always exact repeats. Identical values can stand only once.
# B1: H7.5 Fab (papain digest of H7.5 IgG) (Fab, V domains shown)
# VH: QVQLVQSGAEVKKPGASVKVSCKASGYTLTRYYFHWVRQAPGQGFEWMGIINPNGGGTSYAQKFGDRVIMTSDMSTSTIYMELSSLRSEDTAVYYCARDMPYYHDSGGPLFDLWGQGTLVTVSS
# VL: EIVMTQSPSSLSASVGDRVTITCRPSQSISTFLNWYEQKPGKAPKLLIYDASSLQSGVPSRFSGSGSGTEFTLTISSLQPEDFATYYCQQSFSTPYTFGQGTRLEIK
# Legend:
# Assay in all cases: cryo-EM structure
# Details in all cases: both partners purified
# [1] = target: T1, cleaved H7 Sh2 HA (HA1/HA2), A/Shanghai/2/2013, ectodomain trimer (influenza A virus (A/Shanghai/2/2013))
# T1 construct: copies: 3 + 3
# [2] = target: T2, cleaved H7 NL HA (HA1/HA2), A/Netherlands/219/2003, ectodomain trimer (influenza A virus …, UniProt Q6VMK1)
# T2 construct: copies: 3 + 3
# [3] = target: uncleaved H7 NY HA (HA0), A/New York/107/2003, ectodomain trimer (influenza A virus (A/New York/107/2003))
binder,measurement,setting,value
B1,stoichiometry N,[1],3 Fabs per trimer
same,stoichiometry N,[2],3 Fabs per trimer and 2 Fabs per trimer
same,stoichiometry N,[3],3 Fabs per trimer

# From article PMC6375650 (PLoS Biology, 2019)
